The text below walks through data of patent US12139520B2 (priority 2020, dated 2024).

Numbered stars: 1 amine (or outer) side, 2 acyl side, 3 side chain; on linkers, the order of the positions; unused ones are H or OH. Bridge positions count the residues as written; N and C are the ends. Square brackets hold non-standard residues; d marks the D form. Side chains are listed from the residue outwards. Ends that are not written are not given here. Peptide text beside a SMILES is read from it. * marks the point of attachment. C20 diacid = O=C(O)CCCCCCCCCCCCCCCCCCC(=O)*; γGlu = O=C(O)[C@H](CCC(=O)[*:2])N[*:1]; Hyp = O=C(O)[C@@H]1C[C@@H](O)CN1; AEEA = NCCOCCOCC(=O)O Bounds are passed on as bounds.

One test addresses T1, hAMY3 receptor (Homo sapiens, UniProt O60896+P30988).
T1 sequence (P30988 25-474): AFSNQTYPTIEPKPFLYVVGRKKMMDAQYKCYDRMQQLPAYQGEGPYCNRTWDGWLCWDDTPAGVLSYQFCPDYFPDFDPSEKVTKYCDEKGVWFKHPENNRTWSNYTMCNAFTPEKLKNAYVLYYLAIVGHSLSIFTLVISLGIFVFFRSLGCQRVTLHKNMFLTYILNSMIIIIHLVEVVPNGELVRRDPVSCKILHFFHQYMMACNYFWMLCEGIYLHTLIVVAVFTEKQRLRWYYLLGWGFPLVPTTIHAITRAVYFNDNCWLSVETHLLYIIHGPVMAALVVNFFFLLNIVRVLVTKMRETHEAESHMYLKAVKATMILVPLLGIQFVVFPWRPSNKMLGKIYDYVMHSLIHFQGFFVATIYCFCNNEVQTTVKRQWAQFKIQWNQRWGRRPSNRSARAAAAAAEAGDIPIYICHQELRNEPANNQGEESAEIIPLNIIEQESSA
T1 sequence (O60896 24-148 partner): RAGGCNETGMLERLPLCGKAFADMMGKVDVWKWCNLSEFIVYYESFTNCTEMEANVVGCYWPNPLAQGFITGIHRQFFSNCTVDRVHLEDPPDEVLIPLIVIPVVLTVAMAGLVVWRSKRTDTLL
The test can be described thus: cAMP assay for in vitro receptor activation, hAMY3-R. It counts as cell-based. To be noted: cAMP assay, hAMY3 receptor; read-out: hAMY3R EC50. The protocol:
General Protocols for cAMP Assays for Measuring In Vitro Receptor Activation
Cells stably overexpressing the hAMY3 receptor were obtained from Ogeda (now Astellas Pharma), sub-cloned and a monoclonal cell-line with an appropriate assay-window was expanded, aliquoted and frozen.
An aliquot was thawed and plated in DPBS with 0.05% casein and 0.5 mM IBMX as 2000 cells/well in a 384-well format. The cells were then immediately stimulated for 30 min at room temperature with graded doses of test compound using human amylin (Bachem, cat no. H-7905) as a positive control. cAMP accumulation was measured using a Cisbio assay for Gs coupled receptors (cat. no. 62AM4PEC), where the assay reagents were added as per the manufacturer's instructions and time-resolved fluorescence energy transfer recorded after one hour.
(Changes in cAMP serve as a functional read-out for many G protein-coupled receptors.)
Broadly, the EC50 is the midpoint of the concentration-response curve. With `CC[C@H](C)[C@H](NC(=O)[C@H](CCC(N)=O)NC(=O)[C@H](Cc1c[nH]cn1)NC(=O)[C@H](C)NC(=O)[C@H](CC(C)C)NC(=O)[C@H](CCCNC(=N)N)NC(=O)[C@H](CCC(N)=O)NC(=O)[C@@H](NC(=O)[C@@H](NC(=O)[C@@H]1CSSC[C@H](NC(=O)[C@@H](N)CCCCN)C(=O)N[C@@H](CC(N)=O)C(=O)N[C@@H](Cc2ccccc2)C(=O)N[C@@H](C)C(=O)N[C@@H]([C@@H](C)O)C(=O)N1)[C@@H](C)O)C(C)C)C(=O)N[C@@H](Cc1ccc(O)cc1)C(=O)N[C@@H](CCC(N)=O)C(=O)N[C@@H](Cc1ccccc1)C(=O)N[C@H](C(=O)N[C@@H](CC(=O)O)C(=O)N[C@@H](CCCCN)C(=O)N[C@@H](CC(=O)O)C(=O)N[C@@H](CCCCN)C(=O)N[C@@H](CC(=O)O)C(=O)N[C@@H](CC(N)=O)C(=O)N[C@H](C(=O)N[C@@H](C)C(=O)N1CCC[C@H]1C(=O)N[C@@H](CCCNC(=N)N)C(=O)N[C@H](C(=O)N[C@@H](CCCCN)C(=O)N[C@H](C(=O)NCC(=O)N[C@@H](CO)C(=O)N[C@@H](CC(N)=O)C(=O)NCC(=O)N1C[C@H](O)C[C@H]1C(N)=O)C(C)C)[C@@H](C)O)C(C)C)[C@@H](C)O` [compound 3] (H-KCNFATCTVQRLAHQIYQFTDKDKDNVAPRTKVGSNG[Hyp]-NH2; disulfide 2-7), the EC50 worked out at 0.006 nM.
Regarding `CC[C@H](C)[C@H](NC(=O)[C@H](CCC(N)=O)NC(=O)[C@H](Cc1c[nH]cn1)NC(=O)[C@H](C)NC(=O)[C@H](CC(C)C)NC(=O)[C@H](CCCNC(=N)N)NC(=O)[C@H](CCC(N)=O)NC(=O)[C@@H](NC(=O)[C@@H](NC(=O)[C@@H]1CSSC[C@H](NC(=O)[C@@H](N)CCCCN)C(=O)N[C@@H](CC(N)=O)C(=O)N[C@@H](Cc2ccccc2)C(=O)N[C@@H](C)C(=O)N[C@@H]([C@@H](C)O)C(=O)N1)[C@@H](C)O)C(C)C)C(=O)N[C@@H](Cc1ccc(O)cc1)C(=O)N[C@@H](CCC(N)=O)C(=O)N[C@@H](Cc1ccccc1)C(=O)N[C@H](C(=O)N[C@@H](CC(=O)O)C(=O)N[C@@H](CCCCN)C(=O)N[C@@H](CC(=O)O)C(=O)N[C@@H](CCCCN)C(=O)N[C@@H](CC(=O)O)C(=O)N[C@@H](CC(N)=O)C(=O)N[C@H](C(=O)N[C@@H](C)C(=O)N1CCC[C@H]1C(=O)N1CCC[C@H]1C(=O)N[C@H](C(=O)N[C@@H](CCC(=O)O)C(=O)N[C@H](C(=O)NCC(=O)N[C@@H](CO)C(=O)N[C@@H](CC(N)=O)C(=O)NCC(=O)N1C[C@H](O)C[C@H]1C(N)=O)C(C)C)[C@@H](C)O)C(C)C)[C@@H](C)O` [compound 10] (H-KCNFATCTVQRLAHQIYQFTDKDKDNVAPPTEVGSNG[Hyp]-NH2; disulfide 2-7; N-terminus assumed), the EC50 came out at 0.007 nM.
Still for that read-out and setting: the figure for `CC(C)C[C@H](NC(=O)[C@H](CCCNC(=N)N)NC(=O)[C@H](CCC(N)=O)NC(=O)[C@@H](NC(=O)[C@@H](NC(=O)[C@@H]1CSSC[C@H](NC(=O)CN)C(=O)N[C@@H](CCCNC(=N)N)C(=O)N[C@@H](Cc2ccccc2)C(=O)NCC(=O)N[C@@H]([C@@H](C)O)C(=O)N1)[C@@H](C)O)C(C)C)C(=O)N[C@@H](C)C(=O)N[C@@H](CC(N)=O)C(=O)N[C@@H](Cc1ccccc1)C(=O)N[C@@H](CC(C)C)C(=O)N[C@@H](Cc1ccc(O)cc1)C(=O)N[C@@H](CCC(N)=O)C(=O)N[C@@H](Cc1ccccc1)C(=O)N[C@H](C(=O)N[C@@H](CC(=O)O)C(=O)N[C@@H](CCCCN)C(=O)N[C@@H](CC(=O)O)C(=O)N[C@@H](CCCCN)C(=O)N[C@@H](CC(=O)O)C(=O)N[C@@H](CC(N)=O)C(=O)N[C@H](C(=O)N[C@@H](C)C(=O)N1CCC[C@H]1C(=O)N[C@@H](CCCNC(=N)N)C(=O)N[C@H](C(=O)N[C@@H](CC(N)=O)C(=O)N[C@H](C(=O)NCC(=O)N1CCC[C@H]1C(=O)N[C@@H](CCC(N)=O)C(=O)NCC(=O)N[C@@H](Cc1ccc(O)cc1)C(N)=O)C(C)C)[C@@H](C)O)C(C)C)[C@@H](C)O` [compound 16] (H-GCRFGTCTVQRLANFLYQFTDKDKDNVAPRTNVGPQGY-NH2; disulfide 2-7) is 0.008 nM; for `CC[C@H](C)[C@H](NC(=O)[C@H](CCC(N)=O)NC(=O)[C@H](Cc1c[nH]cn1)NC(=O)[C@H](C)NC(=O)[C@H](CC(C)C)NC(=O)[C@H](CCCNC(=N)N)NC(=O)[C@H](CCC(N)=O)NC(=O)[C@@H](NC(=O)[C@@H](NC(=O)[C@@H]1CSSC[C@H](NC(=O)[C@@H](N)CCCCN)C(=O)N[C@@H](CC(N)=O)C(=O)N[C@@H](Cc2ccccc2)C(=O)N[C@@H](C)C(=O)N[C@@H]([C@@H](C)O)C(=O)N1)[C@@H](C)O)C(C)C)C(=O)N[C@@H](Cc1ccc(O)cc1)C(=O)N[C@@H](CCC(N)=O)C(=O)N[C@@H](Cc1ccccc1)C(=O)N[C@H](C(=O)N[C@@H](CC(=O)O)C(=O)N[C@@H](CCCCN)C(=O)N[C@@H](CC(=O)O)C(=O)N[C@@H](CCCCN)C(=O)N[C@@H](CC(=O)O)C(=O)N[C@@H](CC(N)=O)C(=O)N[C@H](C(=O)N[C@@H](C)C(=O)N1CCC[C@H]1C(=O)N[C@@H](CCCNC(=N)N)C(=O)N[C@H](C(=O)N[C@@H](CCC(=O)O)C(=O)N[C@H](C(=O)NCC(=O)N[C@@H](CO)C(=O)N[C@@H](CC(N)=O)C(=O)NCC(=O)N1C[C@H](O)C[C@H]1C(N)=O)C(C)C)[C@@H](C)O)C(C)C)[C@@H](C)O` [compound 17] (H-KCNFATCTVQRLAHQIYQFTDKDKDNVAPRTEVGSNG[Hyp]-NH2; disulfide 2-7; N-terminus assumed) it is 0.008 nM.

Another test has as its target T2, hAMY3R (human, UniProt P30988).
T2 sequence 1: T1 sequence (P30988 25-474)
T2 sequence 2: T1 sequence (O60896 24-148 partner)
Nature of the test: cell-based or functional assay.
Conditions: not given
For the molecule GCRTGTCTVQRLAHQIYQFTDKDKDNVAPRTNVGPQG[Hyp]-NH2 (disulfide 2-7 (inferred); ends not checked) [SEQ ID NO: 49], the “hAMY3R EC50 (cAMP)” value amounted to 0.011 nM.
On the same count and under the same terms, in the case of {C20 diacid-γGlu}-KCNTATCTVQRLAHQIYQYTDKDKDNVAPPTNVGSNG[Hyp]-NH2 (disulfide 2-7 (inferred); ends not checked) [SEQ ID NO: 48] it was 0.011 nM; in that of KCNTATCTVQRLAHQIYQFTDKAKDNVAPPTNVGSNG[Hyp]-NH2 (disulfide 2-7 (inferred); ends not checked) [SEQ ID NO: 43], 0.01 nM.
The same measure, in the same setting: in the case of KCNTATCTVQRLAEQIYQFTDKDKDNVAPPYNEGSNG[Hyp]-NH2 (disulfide 2-7 (inferred); ends not checked) [SEQ ID NO: 44] it was 0.01 nM; in that of KCNTATCTVQRLAEQIYQFTDKDKDK([AEEA-AEEA-γGlu-C20 diacid])VAPPTNVGSNG[Hyp]-NH2 (disulfide 2-7 (inferred); not fully specified (N-terminus); ends not checked) [SEQ ID NO: 41], 0.01 nM; in that of KCNTATCTVQRLAHQIYAFTDKDKDNVAPPTNVGSNG[Hyp]-NH2 (disulfide 2-7 (inferred); ends not checked) [SEQ ID NO: 42], 0.01 nM.
Still for that read-out and setting: in the case of KCNTATCTVQRLAEQIYQFTDKDKK([AEEA-AEEA-γGlu-C20 diacid])NVAPPTNVGSNG[Hyp]-NH2 (disulfide 2-7 (inferred); not fully specified (N-terminus); ends not checked) [SEQ ID NO: 40] it was 0.01 nM; in that of GCRFGTCTVQRLAHQIYQFTDKDKDNVAPRTNIGPQG[Hyp]-NH2 (disulfide 2-7 (inferred); ends not checked) [SEQ ID NO: 46], 0.011 nM.
For GCRFGTCTVQRLAHQIYQFTDKDKDNVAPRTKVGPQG[Hyp]-NH2 (disulfide 2-7 (inferred); ends not checked) [SEQ ID NO: 45], the “hAMY3R EC50 (cAMP)” value came to 0.011 nM.
Still for that read-out and setting: in the case of {C20 diacid-γGlu}-KCNTATCTVQRLAYQIYQFTDKDKDNVAPPTNVGSNG[Hyp]-NH2 (disulfide 2-7 (inferred); ends not checked) [SEQ ID NO: 47] it was 0.011 nM.

The next test concerns the target hAM1R (human, UniProt Q16602). The test can be described thus: cell-based or functional assay.
Conditions: not given
Consider GCRTGTCTVQRLAHQIYQFTDKDKDNVAPRTNVGPQG[Hyp]-NH2 (disulfide 2-7 (inferred); ends not checked) [SEQ ID NO: 49], for which the “hAM1R EC50 (cAMP)” value turned out to be 2980 nM.
On the same count and under the same terms, in the case of {C20 diacid-γGlu}-KCNTATCTVQRLAHQIYQYTDKDKDNVAPPTNVGSNG[Hyp]-NH2 (disulfide 2-7 (inferred); ends not checked) [SEQ ID NO: 48] it was 761 nM; in that of KCNTATCTVQRLAHQIYQFTDKAKDNVAPPTNVGSNG[Hyp]-NH2 (disulfide 2-7 (inferred); ends not checked) [SEQ ID NO: 43], over 5000 nM; in that of KCNTATCTVQRLAEQIYQFTDKDKDNVAPPYNEGSNG[Hyp]-NH2 (disulfide 2-7 (inferred); ends not checked) [SEQ ID NO: 44], over 5000 nM.
Regarding KCNTATCTVQRLAEQIYQFTDKDKDK([AEEA-AEEA-γGlu-C20 diacid])VAPPTNVGSNG[Hyp]-NH2 (disulfide 2-7 (inferred); not fully specified (N-terminus); ends not checked) [SEQ ID NO: 41], the “hAM1R EC50 (cAMP)” value was over 5000 nM.
On the same count and under the same terms, the figure for KCNTATCTVQRLAHQIYAFTDKDKDNVAPPTNVGSNG[Hyp]-NH2 (disulfide 2-7 (inferred); ends not checked) [SEQ ID NO: 42] is over 5000 nM.
The same measure, in the same setting: the figure for KCNTATCTVQRLAEQIYQFTDKDKK([AEEA-AEEA-γGlu-C20 diacid])NVAPPTNVGSNG[Hyp]-NH2 (disulfide 2-7 (inferred); not fully specified (N-terminus); ends not checked) [SEQ ID NO: 40] is over 5000 nM; for GCRFGTCTVQRLAHQIYQFTDKDKDNVAPRTNIGPQG[Hyp]-NH2 (disulfide 2-7 (inferred); ends not checked) [SEQ ID NO: 46] it is 78.5 nM.
The same measure, in the same setting: in the case of GCRFGTCTVQRLAHQIYQFTDKDKDNVAPRTKVGPQG[Hyp]-NH2 (disulfide 2-7 (inferred); ends not checked) [SEQ ID NO: 45] it was 50.5 nM; in that of {C20 diacid-γGlu}-KCNTATCTVQRLAYQIYQFTDKDKDNVAPPTNVGSNG[Hyp]-NH2 (disulfide 2-7 (inferred); ends not checked) [SEQ ID NO: 47], 500 nM.
